Reference: article PMC12339945

Biological target: HIV-1 Tat (E. coli, purified) (HIV-1, UniProt P12506)
Assay: NMR titration (1D 1H imino)
Conditions: protein: recombinant; tags: N-terminal His6, stated as cleaved after purification

GGGAGCUUGAUCCCGGAAACGGUCGAUCGCUCCC (structured_RNA) [HIV Tat RNA aptamer (unlabeled)]: binds.
